Measured values taken from article PMC10563079 (Molecules, 2023).
Where two headings read alike, the source gives them in different places. Bridge positions count the residues as written; N and C are the ends. Ends that are not written are not given here. Peptide text beside a SMILES is read from it.

T1: sPHGDH (1-307) (Homo sapiens, UniProt O43175)
T1 construct: the truncated version of PHGDH (sPHGDH, 1-307); made in house
T1 sequence (O43175 1-307): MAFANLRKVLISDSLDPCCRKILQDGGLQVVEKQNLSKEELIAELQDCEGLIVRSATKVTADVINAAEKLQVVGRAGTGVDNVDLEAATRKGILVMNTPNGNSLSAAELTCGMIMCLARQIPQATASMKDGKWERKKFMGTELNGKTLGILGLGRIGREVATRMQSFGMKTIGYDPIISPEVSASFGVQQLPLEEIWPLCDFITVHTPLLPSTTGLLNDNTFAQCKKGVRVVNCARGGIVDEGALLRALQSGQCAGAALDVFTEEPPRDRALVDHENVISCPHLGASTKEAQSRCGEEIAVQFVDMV

T2: full-length PHGDH (1-533) (Homo sapiens, UniProt O43175)
T2 construct: the full-length PHGDH (1-533); made in house
T2 sequence (O43175 1-533): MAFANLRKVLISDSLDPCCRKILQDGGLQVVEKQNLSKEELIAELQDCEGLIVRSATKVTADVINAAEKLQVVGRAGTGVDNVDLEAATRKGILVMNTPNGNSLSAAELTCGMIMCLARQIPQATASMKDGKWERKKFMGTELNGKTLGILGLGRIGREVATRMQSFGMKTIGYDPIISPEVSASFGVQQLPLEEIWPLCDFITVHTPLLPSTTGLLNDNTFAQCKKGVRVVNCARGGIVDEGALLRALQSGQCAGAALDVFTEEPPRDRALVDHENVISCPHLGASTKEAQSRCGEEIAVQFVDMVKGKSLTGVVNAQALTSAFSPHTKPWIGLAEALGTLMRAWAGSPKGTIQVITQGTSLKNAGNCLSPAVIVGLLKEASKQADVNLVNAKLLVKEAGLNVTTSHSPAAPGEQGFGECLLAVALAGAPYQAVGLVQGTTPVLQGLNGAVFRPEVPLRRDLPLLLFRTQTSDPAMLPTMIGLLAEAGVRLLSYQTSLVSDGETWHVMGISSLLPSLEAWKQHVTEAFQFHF

T3: full-length PHGDH (1-533) (human, UniProt O43175 1-533)
T3 sequence (looked up): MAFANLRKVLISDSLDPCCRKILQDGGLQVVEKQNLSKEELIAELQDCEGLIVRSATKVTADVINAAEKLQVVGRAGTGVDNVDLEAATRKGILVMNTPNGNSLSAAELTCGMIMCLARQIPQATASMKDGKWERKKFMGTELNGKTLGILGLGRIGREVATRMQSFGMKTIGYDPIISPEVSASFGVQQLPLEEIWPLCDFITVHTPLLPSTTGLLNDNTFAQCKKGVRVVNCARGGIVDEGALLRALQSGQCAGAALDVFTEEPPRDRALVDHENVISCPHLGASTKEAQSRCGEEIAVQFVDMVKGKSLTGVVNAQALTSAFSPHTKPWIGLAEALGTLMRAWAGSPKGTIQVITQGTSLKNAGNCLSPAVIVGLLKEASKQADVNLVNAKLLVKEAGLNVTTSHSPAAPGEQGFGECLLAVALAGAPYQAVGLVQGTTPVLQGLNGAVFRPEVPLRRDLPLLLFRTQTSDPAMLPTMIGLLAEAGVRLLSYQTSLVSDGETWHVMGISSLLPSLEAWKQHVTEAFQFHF

T4: truncated version of PHGDH (sPHGDH, 1-307) (human, UniProt O43175 1-307, labelled with Monolith NT.115 Protein Labeling Kit RED-NHS (in the MST assay only))
T4 sequence (looked up): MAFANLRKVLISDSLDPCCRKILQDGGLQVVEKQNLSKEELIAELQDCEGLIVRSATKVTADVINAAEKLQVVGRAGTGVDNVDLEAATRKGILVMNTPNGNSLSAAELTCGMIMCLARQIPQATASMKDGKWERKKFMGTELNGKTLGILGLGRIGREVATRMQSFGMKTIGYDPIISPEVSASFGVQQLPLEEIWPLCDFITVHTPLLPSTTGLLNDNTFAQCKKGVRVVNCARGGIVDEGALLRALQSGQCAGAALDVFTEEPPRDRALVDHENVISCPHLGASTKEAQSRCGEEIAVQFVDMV

B1: cyclic peptide cyc1-11 (peptide)
peptide: CTPQATLTMKNGSWEEKKC
modifications: disulfide 1-19; not fully specified (N-terminus); printed as C_1_TPQA TLTMK NGSWE EKKC_19_
notes: A7L and S8T combined with D11N, K13S, native E15 kept, E16 (peptide numbering); designed from the dimerization loop of human PHGDH; source: synthetic peptide (GL Biochem, Shanghai; Fmoc solid-phase synthesis, HPLC purified)
B2: double constrained cyclic peptide cyc2-1 (peptide)
peptide: Ac-CTPQATACMKDGKWCRKKC
modifications: disulfide 1-19, 8-15
notes: cyc1-1 with an added intramolecular disulfide C8-C15 (S8C, E15C); designed from the dimerization loop of human PHGDH; source: synthetic peptide (GL Biochem, Shanghai; Fmoc solid-phase synthesis, stepwise disulfide formation, HPLC purified)
B3: double constrained cyclic peptide cyc2-3 (peptide)
peptide: Ac-CTPQATACMRDGKWCRKKC
modifications: disulfide 1-19, 8-15
notes: cyc2-1 with K10R (peptide numbering); source: synthetic peptide (GL Biochem, Shanghai; Fmoc solid-phase synthesis, stepwise disulfide formation, HPLC purified)
B4: cyclic peptide cyc1-12 (peptide)
peptide: CTPQATLSMKNGSWEQKKC
modifications: disulfide 1-19; not fully specified (N-terminus); printed as C_1_TPQA TLSMK NGSWE QKKC_19_
notes: contains R16Q, with A7L, D11N and K13S (peptide numbering); designed from the dimerization loop of human PHGDH; source: synthetic peptide (GL Biochem, Shanghai; Fmoc solid-phase synthesis, HPLC purified)
B5: cyclic peptide cyc1-2 (peptide)
peptide: CTPQATLSMKDGKWEEKKC
modifications: disulfide 1-19; not fully specified (N-terminus); printed as C_1_TPQA TLSMK DGKWE EKKC_19_
notes: cyc1-1 with A7L and R16E (peptide numbering); designed from the dimerization loop of human PHGDH; source: synthetic peptide (GL Biochem, Shanghai; Fmoc solid-phase synthesis, HPLC purified)
B6: cyclic peptide cyc1-6 (peptide)
peptide: CTPDATLSMKDGKWEEKKC
modifications: disulfide 1-19; not fully specified (N-terminus); printed as C_1_TPDA TLSMK DGKWE EKKC_19_
notes: cyc1-2 with Q4D (peptide numbering); designed from the dimerization loop of human PHGDH; source: synthetic peptide (GL Biochem, Shanghai; Fmoc solid-phase synthesis, HPLC purified)
B7: cyclic peptide cyc1-9 (peptide)
peptide: CTPQATASMKNGSWQEKKC
modifications: disulfide 1-19; not fully specified (N-terminus); printed as C_1_TPQA TASMK NGSWQ EKKC_19_
notes: the text names D11N, K13S and E15Q; designed from the dimerization loop of human PHGDH; source: synthetic peptide (GL Biochem, Shanghai; Fmoc solid-phase synthesis, HPLC purified)

How the values were obtained:
[1] = biological target: T1, sPHGDH (1-307); test: sPHGDH enzyme activity assay (NADH fluorescence); format: biochemical
Experimental: (§1) PHGDH activity in the presence of peptides was measured in 96-well plates (100 μL per well) at 25 °C, through monitoring the NADH fluorescence (excitation at 360 nm and emission at 460 nm) over time. PAST1 and its substrate glutamate were also included in order to prevent product inhibition. In the enzyme assays, protein expression and purification, including the truncated version of PHGDH (sPHGDH, 1-307), the full-length PHGDH (1-533), and PAST1, were carried out as described in our previous papers. To evaluate the effects of peptides on enzyme activity, the peptides were pre-incubated with enzyme samples (sPHGDH 453.3 nM or PHGDH 30.9 nM) in the assay buffer (HEPES 50 mM, pH 7.5, 10 mM MgCl2, and 1 mM EDTA) for 12 h. Then, 1.98 μM PAST1, 1 mM NAD^+, and 30 mM glutamate were added and pre-incubated for 10 min before initiating the enzyme reaction via the addition of the substrate (1 mM 3-PG). Fluorescence signals were recorded for 3 min with the kinetics-reading mode of the Biotek plate reader (Synergy). IC50 values were obtained through fitting the data using a three-parameter Hill model of the graph of log dose against the percentage inhibition from three repeated experiments. For those peptides containing two disulfide bonds, a second step of oxidation reaction was carried out to generate the second disulfide pair. […] The purified Acm-protected peptide was then treated with iodine (I2, 1 wt% in MeOH), dropwise under acidic conditions until the solution became brown.

[2] = biological target: T2, full-length PHGDH (1-533); test: full-length PHGDH enzyme activity assay (NADH fluorescence); format: biochemical
Experimental: as §1

[3] = biological target: T3, full-length PHGDH (1-533); test: cell-based or functional assay
[4] = biological target: T4, truncated version of PHGDH (sPHGDH, …); test: cell-based or functional assay
[5] = biological target: T4, truncated version of PHGDH (sPHGDH, …); test: MST; sPHGDH labelled with RED-NHS, 20 nM final; peptides in 16 points, 1:2 dilutions from 0.5 mM; 50 mM HEPES pH 7.5, 1 mM EDTA, 10 mM MgCl2, 100 mM NaCl, 0.005% Tween 20; incubated 16 h at room temperature; 1:1 binding mode; apparent; conditions: both partners purified
[6] = sPHGDH, 12 h pre-incubation, read-out: IC50 Value
[7] = read-out: IC50 value (μM), full-length PHGDH activity

| Molecule | IC50 of inhibition of full-length PHGDH enzyme activity (NADH fluorescence); the pair blocked is the PHGDH homo-oligomer (m2+m2) [3] [µM] | IC50 of inhibition of sPHGDH enzyme activity (NADH fluorescence); the pair blocked is the sPHGDH homo-dimer (m1+m1) [4] [µM] | Kd [5] [µM] | also measured |
| --- | --- | --- | --- | --- |
| CSCC[C@@H]1NC(=O)[C@H](CO)NC(=O)[C@H](CC(C)C)NC(=O)[C@H]([C@@H](C)O)NC(=O)[C@H](C)NC(=O)[C@H](CC(=O)O)NC(=O)[C@@H]2CCCN2C(=O)[C@H]([C@@H](C)O)NC(=O)[C@@H](NC(C)=O)CSSC[C@@H](C(=O)O)NC(=O)[C@H](CCCCN)NC(=O)[C@H](CCCCN)NC(=O)[C@H](CCC(=O)O)NC(=O)[C@H](CCC(=O)O)NC(=O)[C@H](Cc2c[nH]c3ccccc23)NC(=O)[C@H](CCCCN)NC(=O)CNC(=O)[C@H](CC(=O)O)NC(=O)[C@H](CCCCN)NC1=O [Cyc1-6, C1TPDA TLSMK DGKWE EKKC19] (Ac-CTPDATLSMKDGKWEEKKC-OH; disulfide 1-19) |  |  |  | IC50 [1, 6]: 5.1 ± 0.4 µM; IC50 [2, 7]: 24.6 ± 2.3 µM |
| CSCC[C@@H]1NC(=O)[C@@H]2CSSC[C@H](NC(=O)[C@H](Cc3c[nH]c4ccccc34)NC(=O)[C@H](CCCCN)NC(=O)CNC(=O)[C@H](CC(=O)O)NC(=O)[C@H](CC(C)C)NC1=O)C(=O)N[C@@H](CCC(=O)O)C(=O)N[C@@H](CCCCN)C(=O)N[C@@H](CCCCN)C(=O)N[C@H](C(=O)O)CSSC[C@H](NC(C)=O)C(=O)N[C@@H]([C@@H](C)O)C(=O)N1CCC[C@H]1C(=O)N[C@@H](CCC(N)=O)C(=O)N[C@@H](C)C(=O)N[C@@H]([C@@H](C)O)C(=O)N[C@@H](C)C(=O)N2 [Cyc2-6, C1TPQA TAC8ML DGKWC15 EKKC19] (Ac-CTPQATACMLDGKWCEKKC-OH; disulfide 1-19, 8-15) |  |  |  | IC50 [1]: 15 ± 1 µM; IC50 ([2]; IC50 value (μM), full-length PHGDH activity): 47.1 ± 5.2 µM |
| CSCC[C@@H]1NC(=O)[C@H](CO)NC(=O)[C@H](C)NC(=O)[C@H]([C@@H](C)O)NC(=O)[C@H](C)NC(=O)[C@H](CCC(N)=O)NC(=O)[C@@H]2CCCN2C(=O)[C@H]([C@@H](C)O)NC(=O)[C@@H](NC(C)=O)CSSC[C@@H](C(=O)O)NC(=O)[C@H](CCCCN)NC(=O)[C@H](CCCCN)NC(=O)[C@H](Cc2c[nH]c3ccccc23)NC(=O)[C@H](CCC(=O)O)NC(=O)[C@H](Cc2c[nH]c3ccccc23)NC(=O)[C@H](CCCCN)NC(=O)CNC(=O)[C@H](CC(=O)O)NC(=O)[C@H](CC(C)C)NC1=O [Cyc1-5, C1TPQA TASML DGKWE WKKC19] (Ac-CTPQATASMLDGKWEWKKC-OH; disulfide 1-19) |  |  |  | IC50 [1, 6]: 13.4 ± 2 µM; IC50 [2, 7]: 37.1 ± 1.7 µM |
| CSCC[C@@H]1NC(=O)[C@H]([C@@H](C)O)NC(=O)[C@H](CC(C)C)NC(=O)[C@H]([C@@H](C)O)NC(=O)[C@H](C)NC(=O)[C@H](CCC(N)=O)NC(=O)[C@@H]2CCCN2C(=O)[C@H]([C@@H](C)O)NC(=O)[C@@H](NC(C)=O)CSSC[C@@H](C(=O)O)NC(=O)[C@H](CCCCN)NC(=O)[C@H](CCCCN)NC(=O)[C@H](CCC(=O)O)NC(=O)[C@H](CCC(=O)O)NC(=O)[C@H](Cc2c[nH]c3ccccc23)NC(=O)[C@H](CCCCN)NC(=O)CNC(=O)[C@H](CC(=O)O)NC(=O)[C@H](CCCCN)NC1=O [Cyc1-7, C1TPQA TLTMK DGKWE EKKC19] (Ac-CTPQATLTMKDGKWEEKKC-OH; disulfide 1-19) |  |  |  | IC50 [1, 6]: 5.6 ± 1.2 µM; IC50 [2, 7]: 23.5 ± 2 µM |
| B1 | 16.2 | 5.4 | 23.1 ± 4.2 |  |
| B2 | 37.3 | 12 | 3.3 ± 0.8 |  |
| B3 | 32.9 | 5.2 |  |  |
| B4 | 20.3 | 5.6 |  |  |
| B5 |  | 6.4 | 11.4 ± 3 |  |
| B6 |  | 5.1 | 24.8 ± 7.1 |  |
| B7 |  | 4.7 | 9.8 ± 2.2 |  |
